Target: β-amyloid1-42 (UniProt P05067)
Assay: cell-based or functional assay

In the case of cyclic peptide (Ac)ECCK-amide, the ACh rel % Inh @ 100 µM is reported as 87%.
